The target of test [1] is T1, BSA conjugated CD28 stalk region dimeric peptide (human, also: dimer through the cysteine, BSA conjugated via C-terminal Lys by hydrazide chemistry).
T1 construct: Peptide used for immunization and, BSA conjugated, as ELISA antigen for M9; also called stalk region peptide
T1 peptide: GKHLCPSPLFPGPSKPK
Put plainly: ELISA, antigen immobilized, serial dilution of M9, anti mouse IgG-HRP (FIG. 12A). (In an ELISA, binding on a coated surface is turned into a signal by an enzyme label.)

Test [2] has as its target T2, membranal human CD28 (full-length human CD28 on cells) (human, UniProt P10747 19-220).
T2 construct: in the functional assays also the CD28 of human CD3 or CD4 T cells and PBMC; also called mCD28; membranal CD28
Description: FACS, FITC conjugated VHH on HEK cells overexpressing human CD28 (FIG. 14). (Flow cytometry measures light scatter and fluorescence of single cells or particles in a stream.)

Test [3] has as its target T3, Biotin conjugated L145K CD28 stalk region dimeric peptide (human, C-terminal biotin; dimer through Cysteine 141).
T3 peptide: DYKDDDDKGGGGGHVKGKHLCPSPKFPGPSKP
Put plainly: direct ELISA on L145K dimeric stalk peptide on neutravidin plates, anti His tag-HRP (FIG. 23).

This note sets out measurements from patent publication US20220169732A1 (BIOND BIOLOGICS, published 2022).

Where no end group is shown, it is not given here.

B1: antibody M9 (antibody, V domains shown)
VH: DVKLVESGGGLVKLGGSLKLSCVASGFTFSSYYMSWVRQTPEKRLEWVATISDGGDNTYYAGTVTGRFTISRDFAKNTLYLQMNSLTSEDTAVYYCARIHWPYYFDSWGQGTTLTVSS
VL: QFVLSQSPAILSASPGEMLTMTCRASSSVSYMNWYQQKPGSSPKPWIYATSDLASGVPARFSGSGSGTSYSLTISRVEAEDAATYYCQQWSSHPPTFGGGTKLEIR
notes: Full-size mouse antibody raised in CD1 mice against the dimeric stalk peptide; detected with anti mouse IgG; also called clone M9; anti-cleavage antibody M9
Regarding B1, the binding result in test [1] is reported as “binds”.

B2: VHH clone 2A1 (VHH)
VHH: EVQLVESGGGLVQAGESLRLSCAASGSIASINAMGWYRQAPGSQRELVAAISGGGDTYYADSVKGRFTISRDNAKTTVYLQMNSLRPEDTAVYYCVVDLYGSDYWDWGQGTQVTVSS
notes: also called VHH #2A1
Consider B2, for which the binding result in test [2] is “binds”; in test [3] it was “no binding (tested: 0.2-5 µg/mL)”.

B3: VHH clone 4A4 (VHH)
VHH: EVQLVESGGGLVQAGGSLRLSCAASGSLFSINAMAWYRQAPGKQRELVAAITSSGSTNYANSVKGRFTVSRDNAKNTMYLQMNSLKPEDTAVYYCVVDEYGSDYWIWGQGTQVTVSS
Consider B3, for which the binding result in test [3] is recorded as “no binding (tested: 0.2-5 µg/mL)”.

B4: VHH clone 4A1 (VHH)
VHH: QVQLVESGGGLVQAGGSLRLSCAASGSIFSINAMGWYRQAPGKQRERVAAITSGGSTNYADSVKGRFTISRDNAKNTVYLQMNNLEPRDAGVYYCVVDLYGEDYWIWGQGTQVTVSS
As to B4, the binding result in test [3] is “no binding (tested: 0.2-5 µg/mL)”.
